Reference: publication PMC9191892

Columns and labels:
[1] = molecular target: ribosomes (80S monosomes and polysomes) (S. cerevisiae (endogenous in BY4741)); assay: co-sedimentation; formaldehyde-crosslinked cell extracts (unstressed or H2O2-treated) on 15-50% sucrose gradients, SW41 Ti 2.5 hr at 278,000 x g, 4°C; fractions western blotted
[2] = molecular target: ribosomes (80S monosomes and polysomes) (S. cerevisiae (endogenous in BY4741)); assay: co-sedimentation; polysomal proteomics: formaldehyde-crosslinked extracts (unstressed, H2O2, 3-AT) on 15-50% sucrose gradients, fractions F1-F5 against totals by label-free MS; percent ribosome association estimated from the fraction sum to total ratio

| percent in ribosomal fractions [1] | percent ribosome associated (H2O2-treated extract) [1] | percent ribosome associated (H2O2-treated extract) [2] | Binder |
| --- | --- | --- | --- |
| 10% | 13% |  | Aat2-TAP (cytosolic aspartate aminotransferase with a C-terminal TAP tag) (enzyme) MSATLFNNIELLPPDALFGIKQRYGQDQRATKVDLGIGAYRDDNGKPWVLPSVKAAEKLIHNDSSYNHEYLGITGLPSLTSNAAKIIFGTQSDAFQEDRVISVQSLSGTGALHISAKFFSKFFPDKLVYLSKPTWANHMAIFENQGLKTATYPYWANETKSLDLNGFLNAIQKAPEGSIFVLHSCAHNPTGLDPTSEQWVQIVDAIASKNHIALFDTAYQGFATGDLDKDAYAVRLGVEKLSTVSPVFVCQSFAKNAGMYGERVGCFHLALTKQAQNKTIKPAVTSQLAKIIRSEVSNPPAYGAKIVAKLLETPELTEQWHKDMVTMSSRITKMRHALRDHLVKLGTPGNWDHIVNQCGMFSFTGLTPQMVKRLEETHAVYLVASGRASIAGLNQGNVEYVAKAIDEVVRFYTIEAKL |
|  |  | 9% | Aat2 (cytosolic aspartate aminotransferase), untagged (enzyme) MSATLFNNIELLPPDALFGIKQRYGQDQRATKVDLGIGAYRDDNGKPWVLPSVKAAEKLIHNDSSYNHEYLGITGLPSLTSNAAKIIFGTQSDAFQEDRVISVQSLSGTGALHISAKFFSKFFPDKLVYLSKPTWANHMAIFENQGLKTATYPYWANETKSLDLNGFLNAIQKAPEGSIFVLHSCAHNPTGLDPTSEQWVQIVDAIASKNHIALFDTAYQGFATGDLDKDAYAVRLGVEKLSTVSPVFVCQSFAKNAGMYGERVGCFHLALTKQAQNKTIKPAVTSQLAKIIRSEVSNPPAYGAKIVAKLLETPELTEQWHKDMVTMSSRITKMRHALRDHLVKLGTPGNWDHIVNQCGMFSFTGLTPQMVKRLEETHAVYLVASGRASIAGLNQGNVEYVAKAIDEVVRFYTIEAKL |
